Assay results: US20110104713A1, “PRODUCTS AND PROCESSES FOR MODULATING PEPTIDE-PEPTIDE BINDING DOMAIN INTERACTIONS” (priority 2002, published 2011)

Assays:
GST-Plk1 (full-length) = target: T1, GST-Plk1 (full-length) (Homo sapiens, UniProt P53350); assay: Plk1 kinase assay (32P-incorporation into casein) with peptide activation; format: biochemical; settings: 250 μM peptide pre-incubated 5 minutes at room temperature; three independent experiments
T1 construct: SF9 cells infected with baculoviral GST-Plk1 (full-length) were lysed; made in house; host or cells: SF9 insect cells (baculovirus)
Experimental: SF9 cells infected with baculoviral GST-Plk1 (full-length) were lysed in 20 mM Hepes/KOH (pH 7.5), 135 mM NaCl, 1% NP40, 5 mM EGTA, 5 μM 13-mercaptoethanol, 35 mM NaF, 0.5 mM Na3VO4, 20 mM β-glycerolphosphate, 3 μM microcystin, 1 μM okadaic acid, 10 μg/mL pepstatin, 10 μg/mL leupeptin, and 10 μg/mL aprotinin. Lysates were incubated for 2 hours at 4° C. with glutathione beads, which were subsequently washed five times with 20 mM Hepes/KOH (pH 7.5), 415 mM NaCl, 0.1% CHAPS, 5 mM EGTA, 5 μM β-mercaptoethanol, 35 mM NaF, and 0.5 mM Na3VO4 at 4° C. Bound proteins were eluted with a buffer containing 30 mM glutathione, 50 mM Hepes/KOH (pH 8.0), 25 mM NaCl, 2 mM MgCl2, 1 mM EGTA, and 5 μM β-mercaptoethanol and dialyzed against 10 mM Hepes, 10 mM NaCl, 1 mM EGTA, 1 mM DTT for 3 hours at 4° C. Kinase reactions were performed in 20 mM Hepes/KOH (pH7.5), 15 mM KCl, 10 mM MgCl2, 1 mM EGTA, 100 µM ATP, 5 μCi γ-[^32P]-ATP, 1 mM DTT, and […] casein for 15 minutes at 30° C. Reaction aliquots were removed at various time points, added to sample buffer, and boiled to arrest phosphorylation. ^32P-incorporation into casein was determined by SDS-PAGE electrophoresis, autoradiography, and densitometry using ImageQuant software (Molecular Dynamics). […]

[1] = system: centrosomal localization of GST-Plk-1 PBD in U2OS cells; assay: Centrosomal localization of GST-Plk-1 PBD in permeabilized U2OS cells with peptide competition; format: cell-based, human; settings: 250 μM peptide; nocodazole-arrested, Streptolysin-O permeabilized U2OS cells
Experimental: U2OS cells were cultured in 8-well chamber slides and arrested at G2/M by treatment with nocodazole (50 ng/mL) for 14 hours. After rinsing with PBS, cells were incubated with 4 μM GST-Plk-1 PBD (residues 326-603) and Streptolysin-O (1 U/ml) in permeabilization buffer (25 mM HEPES (pH 7.9), 100 mM KCl, 3 mM NaCl, 200 mM sucrose, 20 mM NaF, 1 mM NaOVO4) for 20 minutes at 37° C. Cells were fixed in 3% paraformaldehyde/2% sucrose for 10 minutes at room temperature and extracted with a 0.5% Triton X-100 solution containing 20 mM Tris-HCl (pH 7.4), 50 mM NaCl, 300 mM sucrose, and 3 mM MgCl2 for 10 minutes at RT. […] Cells were examined using a Nikon Eclipse E600 fluorescence microscope equipped with a SPOT RTcamera and software (Diagnostic Instruments, Livingston, Scotland). Images were analyzed using NIH Image. […]
The normalized intensity of centrosome-specific Alexa Fluor 488 staining (N.I.AF488) or Texas Red staining (N.I.TR) above background was defined as ([Icentrosome−1cell]/Icell) where Icentrosome indicates the fluorescence intensity of either Alexa-Fluor 488 or Texas Red averaged over the centrosome and Icell indicates the overall fluorescence intensity averaged over the entire cell. The relative GST-PBD/γ-tubulin specific staining was then calculated as N.I.AF488/NITR.

[2] = target: T2, GST-Plk-1 PBD (residues 326-603) interaction with mitotic phosphoproteins (Homo sapiens, UniProt P53350); assay: Peptide competition of GST-Plk-1 PBD pull-down of MPM-2 mitotic phosphoproteins from HeLa lysates; format: binding; settings: 320 μM peptide, 45 minutes at 4° C., nocodazole-arrested HeLa lysates
T2 construct: GST-Plk-1 (residues 326-603) was immobilized on glutathionine beads; made in house; host or cells: E. coli BL21
Experimental: HeLa cells were arrested in interphase or G2/M by treatment with aphidicolin (5 μg/mL) or nocodazole (50 ng/mL), respectively, for 16 hours. Cells were lysed in 25 mM Tris/HCl (pH 7.5) containing 125 mM NaCl, 0.5% NP-40, 5 mM EDTA, 2 mM DTT, 4 μg/mL pepstatin, 4 μg/mL aprotinin, 4 μg/mL leupeptin, 1 mM Na3VO4, 50 mM NaF, and […] microcystin, and 150 μgs of lysate incubated with 10 μL of glutathione agarose beads containing 2-5 μg of GST-Plk-1 (residues 326-603), GST-Pin1, or GST for 30 minutes at 4° C. Beads were washed four times with lysis buffer. Precipitated proteins were eluted in sample buffer and detected by blotting with monoclonal MPM-2 (Upstate Biotechnology, Inc.) or polyclonal anti-Cdc25C (Santa Cruz Biotechnology, Santa Cruz, Calif.). For peptide competition experiments, GST-Plk-1 (residues 326-603) was immobilized on glutathionine beads and preincubated with 320 μM of PoloBoxtide-optimal, −8T, or −7V for 45 minutes at 4° C. For binding experiments involving mutant cdc25C, HeLa cells were transfected with wild-type and mutated versions of HA-tagged Cdc25C in pECE using Superfect (Qiagen, Valencia, Calif.). Nocodazole (50 ng/mL) was added seventeen hours after transfection and cells incubated for an additional 14 hours to arrest them in G2/M. Point mutations of Cdc25C were constructed using the QuickChange site-directed mutagenesis system (Stratagene) and verified by DNA sequencing.

T2 sequence (P53350 326-603): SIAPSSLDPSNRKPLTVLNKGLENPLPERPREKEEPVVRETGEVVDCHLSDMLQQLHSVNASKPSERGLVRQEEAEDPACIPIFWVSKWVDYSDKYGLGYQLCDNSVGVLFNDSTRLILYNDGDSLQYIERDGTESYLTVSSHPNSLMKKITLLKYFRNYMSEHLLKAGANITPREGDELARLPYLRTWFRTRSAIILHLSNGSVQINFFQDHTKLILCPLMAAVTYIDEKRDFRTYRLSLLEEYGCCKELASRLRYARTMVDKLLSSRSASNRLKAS
T1 sequence (P53350 whole entry): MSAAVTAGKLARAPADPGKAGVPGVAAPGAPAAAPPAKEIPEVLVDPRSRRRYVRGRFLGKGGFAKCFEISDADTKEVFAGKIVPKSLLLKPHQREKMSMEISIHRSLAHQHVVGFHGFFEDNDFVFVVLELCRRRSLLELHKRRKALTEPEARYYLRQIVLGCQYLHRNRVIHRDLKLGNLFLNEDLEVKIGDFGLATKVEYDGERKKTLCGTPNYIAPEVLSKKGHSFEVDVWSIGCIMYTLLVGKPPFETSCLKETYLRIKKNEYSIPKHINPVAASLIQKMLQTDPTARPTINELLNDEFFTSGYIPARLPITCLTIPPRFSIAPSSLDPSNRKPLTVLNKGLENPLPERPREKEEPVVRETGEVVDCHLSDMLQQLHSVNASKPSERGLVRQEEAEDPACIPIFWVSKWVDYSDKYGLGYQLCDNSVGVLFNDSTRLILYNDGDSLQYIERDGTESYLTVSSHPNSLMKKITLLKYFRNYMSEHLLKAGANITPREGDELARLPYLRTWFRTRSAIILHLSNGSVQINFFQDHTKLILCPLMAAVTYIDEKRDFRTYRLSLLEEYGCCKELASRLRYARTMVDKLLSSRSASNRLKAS

enhancement of Plk1 kinase activity (rate of casein phosphorylation), factor (GST-Plk1 (full-length)): had no effect
effect of peptide pre-incubation on GST-Plk-1 PBD binding of MPM-2 epitopes [2]: not
effect of peptide pre-incubation on GST-Plk-1 PBD binding of MPM-2 epitopes ([2]; listed as 8T): had no effect
Substance: MAGPMQ-S-T-P-LNGAKK (MAGPMQSTPLNGAKK) [PoloBoxtide-8T]
effect of peptide on centrosomal localization of Plk-1 PBD [1]: unaffected
